Assays:
[1] = biological target: Hsp70 nucleotide-binding domain (Hsp70NBD); experiment: ITC
[2] = biological target: Human Rpn1, full-length, recombinant (human, UniProt Q13200 1-908); experiment: ITC
Human Rpn1, full-length, recombinant, sequence (Q13200 whole entry): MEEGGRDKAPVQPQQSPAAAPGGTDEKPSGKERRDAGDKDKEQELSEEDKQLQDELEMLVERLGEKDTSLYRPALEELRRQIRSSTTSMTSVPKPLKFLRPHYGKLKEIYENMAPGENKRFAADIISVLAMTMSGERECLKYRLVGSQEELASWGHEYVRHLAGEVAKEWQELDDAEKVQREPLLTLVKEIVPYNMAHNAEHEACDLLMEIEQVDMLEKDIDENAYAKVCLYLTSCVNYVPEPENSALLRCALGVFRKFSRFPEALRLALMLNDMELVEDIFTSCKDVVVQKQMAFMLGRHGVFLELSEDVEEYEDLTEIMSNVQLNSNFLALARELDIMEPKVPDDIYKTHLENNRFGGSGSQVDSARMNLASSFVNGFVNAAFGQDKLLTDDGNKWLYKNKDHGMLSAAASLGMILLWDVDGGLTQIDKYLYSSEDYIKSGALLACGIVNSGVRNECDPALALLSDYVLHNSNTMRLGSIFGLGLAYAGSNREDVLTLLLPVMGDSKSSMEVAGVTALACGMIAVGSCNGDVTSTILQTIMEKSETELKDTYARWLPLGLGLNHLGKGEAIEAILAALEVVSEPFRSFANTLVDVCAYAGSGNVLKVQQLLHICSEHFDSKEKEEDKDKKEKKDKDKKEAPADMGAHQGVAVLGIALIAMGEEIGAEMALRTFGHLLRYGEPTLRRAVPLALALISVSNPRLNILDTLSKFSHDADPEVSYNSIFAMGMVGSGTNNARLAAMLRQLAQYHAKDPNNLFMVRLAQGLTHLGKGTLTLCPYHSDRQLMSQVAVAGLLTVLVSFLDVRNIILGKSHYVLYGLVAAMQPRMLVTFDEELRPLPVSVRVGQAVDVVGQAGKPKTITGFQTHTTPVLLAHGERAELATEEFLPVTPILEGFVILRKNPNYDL

- Kd [1]: 50 nM
- Kd [2]: ~500 nM
B1: Bag1 (Bcl-2 associated anthanogene 1), full-length (natural protein)
chain: MNRSQEVTRDEESTRSEEVTREEMAAAGLTVTVTHSNEKHDLHVTSQQGSSEPVVQDLAQVVEEVIGVPQSFQKLIFKGKSLKEMETPLSALGIQDGCRVMLIGKKNSPQEEVELKKLKHLEKSVEKIADQLEELNKELTGIQQGFLPKDLQAEALCKLDRRVKATIEQFMKILEEIDTLILPENFKDSRLKRKGLVKKVQAFLAECDTVEQNICQETERLQSTNFALAE
